Measurements published in patent US20220281998A1 (AZUSAPHARMA SCIENCES, published 2022).

Key:
[1] = target: T1, human EpCAM on HCT116 cells (EpCAM-positive human colon cancer cell line) (human, UniProt P16422 24-314); experiment: cell-based or functional assay
T1 sequence (looked up): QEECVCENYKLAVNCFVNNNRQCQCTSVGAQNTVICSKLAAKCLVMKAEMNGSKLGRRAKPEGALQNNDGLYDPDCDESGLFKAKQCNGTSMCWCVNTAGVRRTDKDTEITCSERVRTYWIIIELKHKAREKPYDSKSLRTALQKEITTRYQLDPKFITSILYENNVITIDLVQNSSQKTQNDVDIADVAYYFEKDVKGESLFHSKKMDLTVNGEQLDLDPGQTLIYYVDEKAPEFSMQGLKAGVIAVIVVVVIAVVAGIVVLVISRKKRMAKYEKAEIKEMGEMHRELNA

[2] = target: T2, human CD3E/CD3D heterodimer recombinant protein (manufactured by ACROBiosystems) (human, UniProt P07766 23-126; P04234 22-105); experiment: sandwich ELISA: immobilised human CD3E/CD3D heterodimer, BsAb, biotinylated EpCAM
T2 construct: Bought reagent, immobilised on ELISA plates
T2 sequence (P07766 23-126 limits assumed, chain 1 of 2): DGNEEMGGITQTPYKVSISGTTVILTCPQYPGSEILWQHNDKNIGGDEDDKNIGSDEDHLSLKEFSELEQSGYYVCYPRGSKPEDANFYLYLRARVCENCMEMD
T2 sequence (P04234 22-105 limits assumed, chain 2 of 2): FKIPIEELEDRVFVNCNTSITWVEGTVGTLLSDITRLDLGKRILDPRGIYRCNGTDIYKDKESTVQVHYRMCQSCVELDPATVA
Experimental: 25 μL of a solution containing 2.5 μg/mL human CD3E/CD3D heterodimer recombinant protein (available from ACROBiosystems) was dispensed into each well of a 96-well plate, followed by standing overnight at 4° C. for immobilization. The solution after immobilization was removed, and each well was washed with 200 μL of PBS-T 3 times. Thereafter, 200 μL of a blocking solution (Blocking One, manufactured by NACALAI TESQUE, INC.) diluted 5-fold with distilled water was dispensed, followed by standing at 25° C. for 2 hours for blocking treatment. The blocking solution in each well was removed, and the well was washed with 200 μL of PBS-T 3 times. 100 (ng/mL) or 1000 (ng/mL) EpCAM×CD3 diabody-type BsAb and 100 (ng/mL) or 1000 (ng/mL) EGFR×CD3 diabody-type BsAb as a negative control were each diluted 50-fold with a signal enhancer HIKARI A solution (manufactured by NACALAI TESQUE, INC.) containing 1% BSA, and 25 μL of each solution was dispensed into each well after blocking, followed by standing at 25° C. for 2 hours for reaction treatment between the antibody (EpCAM×CD3 diabody-type BsAb) and the antigen (immobilized human CD3E/CD3D heterodimer recombinant protein). Thereafter, the solution in each well was removed, and the well was washed with 200 μL of PBS-T 3 times.

[3] = target: human EGFR on human cancer cell lines (HCT116, A-431, NCI-H1975, HT-29, RKO) (human, UniProt P00533 25-1210); experiment: cell-based or functional assay
[4] = target: human PSMA on 22Rv1 cells (PSMA-positive human prostate cancer cell line) (human, UniProt Q04609 1-750); experiment: cell-based or functional assay
human PSMA on 22Rv1 cells (PSMA-positive human prostate cancer cell line), sequence (Q04609 whole entry): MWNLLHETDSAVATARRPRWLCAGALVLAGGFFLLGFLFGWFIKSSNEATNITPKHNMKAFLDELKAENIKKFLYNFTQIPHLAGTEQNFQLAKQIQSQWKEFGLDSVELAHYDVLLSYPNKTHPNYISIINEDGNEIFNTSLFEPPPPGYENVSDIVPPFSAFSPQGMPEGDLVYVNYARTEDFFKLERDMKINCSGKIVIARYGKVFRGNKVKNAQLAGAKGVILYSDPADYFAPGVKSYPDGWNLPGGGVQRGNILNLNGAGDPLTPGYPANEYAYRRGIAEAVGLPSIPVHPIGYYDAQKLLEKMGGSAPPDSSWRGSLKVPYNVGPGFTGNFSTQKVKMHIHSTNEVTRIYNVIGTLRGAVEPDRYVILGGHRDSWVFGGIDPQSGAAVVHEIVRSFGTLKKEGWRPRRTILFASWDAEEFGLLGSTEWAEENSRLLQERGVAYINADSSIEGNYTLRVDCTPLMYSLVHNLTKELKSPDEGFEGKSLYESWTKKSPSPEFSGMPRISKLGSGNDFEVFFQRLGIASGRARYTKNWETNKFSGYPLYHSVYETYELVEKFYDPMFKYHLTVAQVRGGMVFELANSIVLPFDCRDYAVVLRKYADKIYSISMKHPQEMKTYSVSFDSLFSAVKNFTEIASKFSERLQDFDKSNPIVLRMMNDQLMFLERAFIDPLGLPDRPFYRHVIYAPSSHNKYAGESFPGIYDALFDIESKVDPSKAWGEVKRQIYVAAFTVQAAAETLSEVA

[5] = target: T2, human CD3E/CD3D heterodimer recombinant …; experiment: sandwich ELISA: immobilised human CD3E/CD3D heterodimer, BsAb, biotinylated HER2
[6] = target: recombinant biotinylated human EGFR (manufactured by ACROBiosystems) (human, UniProt P00533 25-645, biotinylated (site not stated)); experiment: sandwich ELISA: immobilised human CD3E/CD3D heterodimer, BsAb, detection with biotinylated human EGFR
[7] = target: T2, human CD3E/CD3D heterodimer recombinant …; experiment: sandwich ELISA: immobilised human CD3E/CD3D heterodimer, BsAb, biotinylated human EGFR

B1: EUM-H diabody-type BsAb (EpCAM×CD3 diabody-type BsAb derived from EUM-H strain) (bispecific antibody)
chain 1: ATDIQMTQSPSSLSASVGDRVTITCRASQDIRNYLNWYQQKPGKAPKLLIYYTSRLESGVPSRFSGSGSGTDYTLTISSLQPEDFATYYCQQGNTLPWTFGQGTKVEIKAAGGGGSEVQLLEQSGAELVRPGTSVKISCKASGYAFTNYWLGWVKQRPGHGLEWIGDIFPGSGNIHYNEKFKGKATLTADKSSSTAYMQLSSLTFEDSAVYFCARLRNWDEPMDYWGQGTTVTVSSAAAEQKLISEEDLNLGGGMRGSHHHHHH
chain 2: ADELVMTQSPSSLTVTAGEKVTMSCKSSQSLLNSGNQKNYLTWYQQKPGQPPKLLIYWASTRESGVPDRFTGSGSGTDFTLTISSVQAEDLAVYYCQNDYSYPLTFGAGTKLEIKAAGGGGSEVQLVESGGGLVQPGGSLRLSCAASGYSFTGYTMNWVRQAPGKGLEWVALINPYKGVSTYNQKFKDRFTISVDKSKNTAYLQMNSLRAEDTAVYYCARSGYYGDSDWYFDVWGQGTLVTVSSAAAEQKLISEEDLNLGGGMRGSHHHHHH
notes: Secreted by Bifidobacterium longum 105-A carrying pEUM-H; purified through the His tag; also called EUM-H polypeptide 1 + EUM-H polypeptide 2
EC50, cytotoxic activity on HCT116 cells with T-LAKs [1]: 0.0173 nM
binding result [2]: binds

B2: LH9 diabody-type BsAb (EGFR×CD3 diabody-type BsAb derived from FLM-9H strain) (bispecific antibody)
chain 1: ATLTPDIVLTQSPATLSLSPGERATLSCRASQSVSYMNWYQQKPGKAPKRWIYDTSKVASGVPARFSGSGSGTDYSLTINSLEAEDAATYYCQQWSSNPLTFGGGTKVEIKAAGGGGSQVQLQESGPGLVKPSQTLSLTCTVSGGSISSGDYYWSWIRQPPGKGLEWIGYIYYSGSTDYNPSLKSRVTMSVDTSKNQFSLKVNSVTAADTAVYYCARVSIFGVGTFDYWGQGTLVTVSSAAAAEQKLISEEDLNLGGGMRGSHHHHHH
chain 2: ATLTPDIVMTQSPATLSLSPGERATLSCRASQSVSSYLAWYQQKPGQAPRLLIYDASNRATGIPARFSGSGSGTDFTLTISSLEPEDFAVYYCHQYGSTPLTFGGGTKAEIKAAGGGGSDVQLVQSGAEVKKPGASVKVSCKASGYTFTRYTMHWVRQAPGQGLEWIGYINPSRGYTNYADSVKGRFTITTDKSTSTAYMELSSLRSEDTATYYCARYYDDHYCLDYWGQGTTVTVSSAAAEQKLISEEDLNLGGGMRGSHHHHHH
EC50: concentration that reduced the viability of HCT116 cells to 50% (T-LAK:HCT116 5:1, 24 h) [3]: 0.0022 nM

B3: LH-PUM-H diabody-type BsAb (PSMA×CD3 diabody-type BsAb derived from LH-PUM-H strain) (bispecific antibody)
chain 1: ATDIQMTQSPSSLSASVGDRVTITCRASQDIRNYLNWYQQKPGKAPKLLIYYTSRLESGVPSRFSGSGSGTDYTLTISSLQPEDFATYYCQQGNTLPWTFGQGTKVEIKAAGGGGSQVQLVESGGGLVKPGESLRLSCAASGFTFSDYYMYWVRQAPGKGLEWVAIISDGGYYTYYSDIIKGRFTISRDNAKNSLYLQMNSLKAEDTAVYYCARGFPLLRHGAMDYWGQGTLVTVSSAAAEQKLISEEDLNLGGGMRGSHHHHHH
chain 2: ADDIQMTQSPSSLSASVGDRVTITCKASQNVDTNVAWYQQKPGQAPKSLIYSASYRYSDVPSRFSGSASGTDFTLTISSVQSEDFATYYCQQYDSYPYTFGGGTKLEIKAAGGGGSEVQLVESGGGLVQPGGSLRLSCAASGYSFTGYTMNWVRQAPGKGLEWVALINPYKGVSTYNQKFKDRFTISVDKSKNTAYLQMNSLRAEDTAVYYCARSGYYGDSDWYFDVWGQGTLVTVSSAAAEQKLISEEDLNLGGGMRGSHHHHHH
EC50, cytotoxic activity on 22Rv1 cells with T-LAKs [4]: 0.155 nM

B4: HL-PUM-H diabody-type BsAb (PSMA×CD3 diabody-type BsAb derived from HL-PUM-H strain) (bispecific antibody)
chain 1: ATEVQLVESGGGLVQPGGSLRLSCAASGYSFTGYTMNWVRQAPGKGLEWVALINPYKGVSTYNQKFKDRFTISVDKSKNTAYLQMNSLRAEDTAVYYCARSGYYGDSDWYFDVWGQGTLVTVSSAAGGGGSDIQMTQSPSSLSASVGDRVTITCKASQNVDTNVAWYQQKPGQAPKSLIYSASYRYSDVPSRFSGSASGTDFTLTISSVQSEDFATYYCQQYDSYPYTFGGGTKLEIKAAAEQKLISEEDLNLGGGMRGSHHHHHH
chain 2: ADQVQLVESGGGLVKPGESLRLSCAASGFTFSDYYMYWVRQAPGKGLEWVAIISDGGYYTYYSDIIKGRFTISRDNAKNSLYLQMNSLKAEDTAVYYCARGFPLLRHGAMDYWGQGTLVTVSSAAGGGGSDIQMTQSPSSLSASVGDRVTITCRASQDIRNYLNWYQQKPGKAPKLLIYYTSRLESGVPSRFSGSGSGTDYTLTISSLQPEDFATYYCQQGNTLPWTFGQGTKVEIKAAAEQKLISEEDLNLGGGMRGSHHHHHH
EC50, cytotoxic activity on 22Rv1 cells with T-LAKs [4]: 0.233 nM

B5: LH22 diabody-type BsAb (EGFR×CD3 diabody-type BsAb derived from FOM-22H strain) (bispecific antibody)
chain 1: ATLTPDIQMTQSPSSLSASVGDRVTITCSASSSVSYMNWYQQTPGKAPKRWIYDTSKLASGVPSRFSGSGSGTDYTFTISSLQPEDIATYYCQQWSSNPFTFGQGTKLQITAAGGGGSQVQLQESGPGLVKPSQTLSLTCTVSGGSISSGDYYWSWIRQPPGKGLEWIGYIYYSGSTDYNPSLKSRVTMSVDTSKNQFSLKVNSVTAADTAVYYCARVSIFGVGTFDYWGQGTLVTVSSAAAEQKLISEEDLNLGGGMRGSHHHHHH
chain 2: ATLTPDIVMTQSPATLSLSPGERATLSCRASQSVSSYLAWYQQKPGQAPRLLIYDASNRATGIPARFSGSGSGTDFTLTISSLEPEDFAVYYCHQYGSTPLTFGGGTKAEIKAAGGGGSQVQLVQSGGGVVQPGRSLRLSCKASGYTFTRYTMHWVRQAPGKGLEWIGYINPSRGYTNYNQKVKDRFTISRDNSKNTAFLQMDSLRPEDTGVYFCARYYDDHYSLDYWGQGTPVTVSSAAAEQKLISEEDLNLGGGMRGSHHHHHH
EC50: concentration that reduced the viability of HCT116 cells to 50% (T-LAK:HCT116 5:1, 24 h) [3]: 0.00025 nM

B6: LH36 diabody-type BsAb (HER2×CD3 diabody-type BsAb derived from CUM-36-1H strain) (bispecific antibody)
chain 1: ATLTPDIQMTQSPSSLSASVGDRVTITCKASQDVSIGVAWYQQKPGKAPKLLIYSASYRYTGVPSRFSGSGSGTDFTLTISSLQPEDFATYYCQQYYIYPYTFGQGTKVEIKAAGGGGSEVQLVESGGGLVQPGGSLRLSCAASGYSFTGYTMNWVRQAPGKGLEWVALINPYKGVSTYNQKFKDRFTISVDKSKNTAYLQMNSLRAEDTAVYYCARSGYYGDSDWYFDVWGQGTLVTVSSAAAEQKLISEEDLNLGGGMRGSHHHHHH
chain 2: ATDIQMTQSPSSLSASVGDRVTITCRASQDIRNYLNWYQQKPGKAPKLLIYYTSRLESGVPSRFSGSGSGTDYTLTISSLQPEDFATYYCQQGNTLPWTFGQGTKVEIKAAGGGGSEVQLVESGGGLVQPGGSLRLSCAASGFTFTDYTMDWVRQAPGKGLEWVADVNPNSGGSIYNQRFKGRFTLSVDRSKNTLYLQMNSLRAEDTAVYYCARNLGPSFYFDYWGQGTLVTVSSAAAEQKLISEEDLNLGGGMRGSHHHHHH
notes: Secreted by Bifidobacterium longum 105-A carrying pLH36-1; purified through the His tag; also called LH36 polypeptide 1 + LH36 polypeptide 2 (SP50-L2)
binding result [5]: binds
binding result [6]: no binding

B7: LH36 diabody-type BsAb (HER2×CD3 diabody-type BsAb derived from CUM-36-2H strain) (bispecific antibody)
chain 1: ATLTPDIQMTQSPSSLSASVGDRVTITCKASQDVSIGVAWYQQKPGKAPKLLIYSASYRYTGVPSRFSGSGSGTDFTLTISSLQPEDFATYYCQQYYIYPYTFGQGTKVEIKAAGGGGSEVQLVESGGGLVQPGGSLRLSCAASGYSFTGYTMNWVRQAPGKGLEWVALINPYKGVSTYNQKFKDRFTISVDKSKNTAYLQMNSLRAEDTAVYYCARSGYYGDSDWYFDVWGQGTLVTVSSAAAEQKLISEEDLNLGGGMRGSHHHHHH
chain 2: ADDIQMTQSPSSLSASVGDRVTITCRASQDIRNYLNWYQQKPGKAPKLLIYYTSRLESGVPSRFSGSGSGTDYTLTISSLQPEDFATYYCQQGNTLPWTFGQGTKVEIKAAGGGGSEVQLVESGGGLVQPGGSLRLSCAASGFTFTDYTMDWVRQAPGKGLEWVADVNPNSGGSIYNQRFKGRFTLSVDRSKNTLYLQMNSLRAEDTAVYYCARNLGPSFYFDYWGQGTLVTVSSAAAEQKLISEEDLNLGGGMRGSHHHHHH
notes: Secreted by Bifidobacterium longum 105-A carrying pLH36-2; purified through the His tag; also called LH36 polypeptide 1 + LH36 polypeptide 2 (SP52-L2)
binding result [5]: binds

B8: LH31 diabody-type BsAb (EGFR×CD3 diabody-type BsAb derived from DUM-126H strain) (bispecific antibody)
chain 1: ATDIQMTQSPSSLSASVGDRVTITCRASQDIRNYLNWYQQKPGKAPKLLIYYTSRLESGVPSRFSGSGSGTDYTLTISSLQPEDFATYYCQQGNTLPWTFGQGTKVEIKAAGGGGSEVQLVESGGGLVQPGGSLRLSCAASGFTLSGDWIHWVRQAPGKGLEWLGEISAAGGYTDYADSVKGRFTISADTSKNTAYLQMNSLRAEDTAVYYCARESRVSFEAAMDYWGQGTLVTVSSAAAAEQKLISEEDLNLGGGMRGSHHHHHH
chain 2: ATDIQMTQSPSSLSASVGDRVTITCRASQDLATDVAWYQQKPGKAPKLLIYSASFLYSGVPSRFSGSGSGTDFTLTISSLQPEDFATYYCQQSEPEPYTFGQGTKVEIKAAGGGGSEVQLVESGGGLVQPGGSLRLSCAASGYSFTGYTMNWVRQAPGKGLEWVALINPYKGVSTYNQKFKDRFTISVDKSKNTAYLQMNSLRAEDTAVYYCARSGYYGDSDWYFDVWGQGTLVTVSSAAAEQKLISEEDLNLGGGMRGSHHHHHH
notes: Secreted by Bifidobacterium longum 105-A carrying plasmid p126; purified on protein L resin; also called LH31 polypeptide 1 + LH31 polypeptide 2 with SP50-L2
EC50, viability of HCT116 cells with T-LAKs [3]: 0.0084 nM
binding result [7]: binds
